Paper PMC7019923

T1: squid p30 (AUF1 homolog) (Aedes albopictus (cDNA from C6/36 cells), UniProt A0ABM1XVA0 2-281)
T1 sequence: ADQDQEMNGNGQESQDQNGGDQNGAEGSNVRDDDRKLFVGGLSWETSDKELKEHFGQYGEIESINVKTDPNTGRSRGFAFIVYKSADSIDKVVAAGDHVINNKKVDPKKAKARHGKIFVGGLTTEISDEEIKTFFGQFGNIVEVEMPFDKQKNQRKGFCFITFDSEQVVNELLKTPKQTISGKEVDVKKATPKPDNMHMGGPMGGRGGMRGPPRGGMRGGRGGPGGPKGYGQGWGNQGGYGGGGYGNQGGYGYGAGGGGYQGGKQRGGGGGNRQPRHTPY

T2: squid p32 (AUF1 homolog) (Aedes albopictus (cDNA from C6/36 cells), UniProt A0A023EP16 2-301)
T2 sequence: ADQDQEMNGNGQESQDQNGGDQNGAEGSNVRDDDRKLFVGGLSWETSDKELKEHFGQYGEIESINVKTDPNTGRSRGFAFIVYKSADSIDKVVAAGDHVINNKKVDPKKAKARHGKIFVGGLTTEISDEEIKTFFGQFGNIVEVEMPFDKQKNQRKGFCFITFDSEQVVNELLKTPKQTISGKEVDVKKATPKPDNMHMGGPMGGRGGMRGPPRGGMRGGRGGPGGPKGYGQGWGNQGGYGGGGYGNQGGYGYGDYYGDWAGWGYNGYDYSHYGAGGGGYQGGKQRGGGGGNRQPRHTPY


Legend:
squid p30 (AUF1 homolog) = molecular target: T1, squid p30 (AUF1 homolog); experiment: fluorescence intensity titration; details: protein: recombinant; tags: none after cleavage (SUMO fusion removed by SUMO protease)
squid p32 (AUF1 homolog) = molecular target: T2, squid p32 (AUF1 homolog); experiment: fluorescence intensity titration; details: protein: recombinant; tags: none after cleavage (SUMO fusion removed by SUMO protease)

Binder | Kd (squid p30 (AUF1 homolog)) [nM] | Kd (squid p32 (AUF1 homolog)) [nM]
CUAAGAUGCUCGCUGC (ssRNA) [random RNA] | 250 | 630
UAUUUAGUGGUGUUAG (ssRNA) [AU/GU-rich RNA] | 13 | 130
